# Values of other authors as cited in patent publication US20200069786A1, “COMPOSITION AND PROCESS FOR PREPARING VACCINE” (TREOS BIO ZRT., priority 2018, published 2020).
# Read-outs that look alike come from different tables or passages of the source.
# Tested on: TSA
# [1] = TSA expression rate in Cervical cancer
# [2] = TSA expression rate in LUNG cancer
# [3] = TSA expression rate in MELANOMA
# [4] = TSA expression rate in PROSTATE cancer
# [5] = TSA expression rate in GASTRIC cancer
# [6] = TSA expression rate in HEAD and NECK
# [7] = TSA expression rate in BLADDER cancer
# [8] = TSA expression rate in LEUKEMIAS
Molecule,TSA Expression Rate (ER) (LUNG),TSA Expression Rate (ER) (BREAST),Expression Rate (ER) % (TSA expression rate in CRC),Expression Rate (ER) % (TSA expression rate in Kidney),Expression Rate (ER) % [2],Expression Rate (ER) % [3],Expression Rate (ER) % [5],also measured
"ZNF645 (protein, UniProt Q8N7E2 1-425, looked up) E3 ubiquitin-protein ligase …: MNKMPAGEQECEYNKEGKYYSKGVKLVRKKKKIPGYRWGDIKINIIGEKDDLPIHFCDKCDLPIKIYGRIIPCKHAFCYHCANLYDKVGYKVCPRCRYPVLRIEAHKRGSVFMCSIVQQCKRTYLSQKSLQAHIKRRHKRARKQVTSASLEKVRPHIAPPQTEISDIPKRLQDRDHLSYIPPEQHTMVSLPSVQHMLQEQHNQPHKDIQAPPPELSLSLPFPIQWETVSIFTRKHGNLTVDHIQNNSDSGAKKPTPPDYYPECQSQPAVSSPHHIIPQKQHYAPPPSPSSPVNHQMPYPPQDVVTPNSVRSQVPALTTTYDPSSGYIIVKVPPDMNSPPLRAPQSQNGNPSASEFASHHYNLNILPQFTENQETLSPQFTQTDAMDHRRWPAWKRLSPCPPTRSPPPSTLHGRSHHSHQRRHRRY",68%,–,–,–,–,–,–,–
"DKKL1 (protein, UniProt Q9UK85 31-242, looked up) Dickkopf-like protein 1: APIHDADAQESSLGLTGLQSLLQGFSRLFLKGNLLRGIDSLFSAPMDFRGLPGNYHKEENQEHQLGNNTLSSHLQIDKMTDNKTGEVLISENVVASIQPAEGSFEGDLKVPRMEEKEALVPIQKATDSFHTELHPRVAFWIIKLPRRRSHQDALEGGHWLSEKRHRLQAIRDGLRKGTHKDVLEEGTESSSHSRLSPRKTHLLYILRPSRQL",–,20%,0%,0%,12%,25%,–,TSA Expression Rate (ER) (OVARIAN): 57%; TSA Expression Rate (ER) (THYROID): 0%; Expression Rate (ER) % [1]: 33%; Expression Rate (ER) % [4]: 13%
"FBXO39 (protein, UniProt Q8N4B4 1-442, looked up) F-box only protein 39: MDEESELIQPQDQSCWAFLPDLCLCRVFWWLGDRDRSRAALVCRKWNQMMYSAELWRYRTITFSGRPSRVHASEVESAVWYVKKFGRYLEHLEVKFMNPYNAVLTKKFQVTMRGLLSCLSKSNNRLKSLSIQYLELDRLVWRNSIRSSFISSLSFFLKKMGKRLDYLNLKGARLTVEQGCQILDSLSYMRNENVISELNIEDYFSHHLAVYNSPQFKKTMSTFHNLVSLNLNYNCISDELLENLCENASTLRTINIKCHVHDPHGQVIWGMSWAKLARQATNLKVNFFFERIMKYERLARILLQEIPIRSISLRSCYFSDPDCSMRPTLIDLLPTFRHTLQKLTCEFNNNHESLDEELHLLIISCRKLFYFKIWAFLDVSFVERILKSQKERQCALRVFKARIYTNRYETNEEDKTLQEIYRKYRKLIESELSYFVIVYSVM",–,38%,39%,–,0%,–,4%,–
"NY-BR-1 (protein, UniProt Q9BXX3 1-1397, looked up) Ankyrin repeat …: MEEISAAAVKVVPGPERPSPFSQLVYTSNDSYIVHSGDLRKIHKAASRGQVRKLEKMTKRKKTINLNIQDAQKRTALHWACVNGHEEVVTFLVDRKCQLDVLDGEHRTPLMKALQCHQEACANILIDSGADINLVDVYGNTALHYAVYSEILSVVAKLLSHGAVIEVHNKASLTPLLLSITKRSEQIVEFLLIKNANANAVNKYKCTALMLAVCHGSSEIVGMLLQQNVDVFAADICGVTAEHYAVTCGFHHIHEQIMEYIRKLSKNHQNTNPEGTSAGTPDEAAPLAERTPDTAESLVEKTPDEAAPLVERTPDTAESLVEKTPDEAASLVEGTSDKIQCLEKATSGKFEQSAEETPREITSPAKETSEKFTWPAKGRPRKIAWEKKEDTPREIMSPAKETSEKFTWAAKGRPRKIAWEKKETPVKTGCVARVTSNKTKVLEKGRSKMIACPTKESSTKASANDQRFPSESKQEEDEEYSCDSRSLFESSAKIQVCIPESIYQKVMEINREVEEPPKKPSAFKPAIEMQNSVPNKAFELKNEQTLRADPMFPPESKQKDYEENSWDSESLCETVSQKDVCLPKATHQKEIDKINGKLEESPNKDGLLKATCGMKVSIPTKALELKDMQTFKAEPPGKPSAFEPATEMQKSVPNKALELKNEQTLRADEILPSESKQKDYEENSWDTESLCETVSQKDVCLPKAAHQKEIDKINGKLEGSPVKDGLLKANCGMKVSIPTKALELMDMQTFKAEPPEKPSAFEPAIEMQKSVPNKALELKNEQTLRADEILPSESKQKDYEESSWDSESLCETVSQKDVCLPKATHQKEIDKINGKLEESPDNDGFLKAPCRMKVSIPTKALELMDMQTFKAEPPEKPSAFEPAIEMQKSVPNKALELKNEQTLRADQMFPSESKQKKVEENSWDSESLRETVSQKDVCVPKATHQKEMDKISGKLEDSTSLSKILDTVHSCERARELQKDHCEQRTGKMEQMKKKFCVLKKKLSEAKEIKSQLENQKVKWEQELCSVRLTLNQEEEKRRNADILNEKIREELGRIEEQHRKELEVKQQLEQALRIQDIELKSVESNLNQVSHTHENENYLLHENCMLKKEIAMLKLEIATLKHQYQEKENKYFEDIKILKEKNAELQMTLKLKEESLTKRASQYSGQLKVLIAENTMLTSKLKEKQDKEILEAEIESHHPRLASAVQDHDQIVTSRKSQEPAFHIAGDACLQRKMNVDVSSTIYNNEVLHQPLSEAQRKSKSLKINLNYAGDALRENTLVSEHAQRDQRETQCQMKEAEHMYQNEQDNVNKHTEQQESLDQKLFQLQSKNMWLQQQLVHAHKKADNKSKITIDIHFLERKMQHHLLKEKNEEIFNYNNHLKNRIYQYEKEKAETENS",–,47%,–,–,–,–,–,Expression Rate (ER) % [6]: 2%
"FSIP1 (protein, UniProt Q8NA03 1-581, looked up) Fibrous sheath-interacting …: MDIIKGNLDGISKPASNSRIRPGSRSSNASLEVLSTEPGSFKVDTASNLNSGKEDHSESSNTENRRTSNDDKQESCSEKIKLAEEGSDEDLDLVQHQIISECSDEPKLKELDSQLQDAIQKMKKLDKILAKKQRREKEIKKQGLEMRIKLWEEIKSAKYSEAWQSKEEMENTKKFLSLTAVSEETVGPSHEEEDTFSSVFHTQIPPEEYEMQMQKLNKDFTCDVERNESLIKSGKKPFSNTEKIELRGKHNQDFIKRNIELAKESRNPVVMVDREKKRLVELLKDLDEKDSGLSSSEGDQSGWVVPVKGYELAVTQHQQLAEIDIKLQELSAASPTISSFSPRLENRNNQKPDRDGERNMEVTPGEKILRNTKEQRDLHNRLREIDEKLKMMKENVLESTSCLSEEQLKCLLDECILKQKSIIKLSSERKKEDIEDVTPVFPQLSRSIISKLLNESETKVQKTEVEDADMLESEECEASKGYYLTKALTGHNMSEALVTEAENMKCLQFSKDVIISDTKDYFMSKTLGIGRLKRPSFLDDPLYGISVSLSSEDQHLKLSSPENTIADEQETKDAAEECKEP",–,42%,–,–,–,–,–,–
"GASZ (protein, UniProt Q8WWH4 1-475, looked up) Ankyrin repeat, SAM and basic …: MAASALRGLPVAGGGESSESEDDGWEIGYLDRTSQKLKRLLPIEEKKEKFKKAMTIGDVSLVQELLDSGISVDSNFQYGWTPLMYAASVANAELVRVLLDRGANASFEKDKQSILITACSAHGSEEQILKCVELLLSRNADPNVACRRLMTPIMYAARDGHTQVVALLVAHGAEVNTQDENGYTALTWAARQGHKNIVLKLLELGANKMLQTKDGKMPSEIAKRNKHHEIFNLLSFTLNPLEGKLQQLTKEDTICKILTTDSDREKDHIFSSYTAFGDLEVFLHGLGLEHMTDLLKERDITLRHLLTMREDEFTKNGITSKDQQKILAALKELQVEEIQFGELSEETKLEISGDEFLNFLLKLNKQCGHLITAVQNVITELPVNSQKITLEWASPQNFTSVCEELVNNVEDLSEKVCKLKDLIQKLQNERENDPTHIQLREEVSTWNSRILKRTAITICGFGFLLFICKLTFQRK",29%,–,22%,–,–,17%,0%,TSA Expression Rate (ER) (THYROID): 13%; Expression Rate (ER) % [1]: 50%
"TSPY1 (protein, UniProt Q01534 1-308, looked up) Testis-specific Y-encoded …: MRPEGSLTYRVPERLRQGFCGVGRAAQALVCASAKEGTAFRMEAVQEGAAGVESEQAALGEEAVLLLDDIMAEVEVVAEEEGLVERREEAQRAQQAVPGPGPMTPESAPEELLAVQVELEPVNAQARKAFSRQREKMERRRKPHLDRRGAVIQSVPGFWANVIANHPQMSALITDEDEDMLSYMVSLEVGEEKHPVHLCKIMLFFRSNPYFQNKVITKEYLVNITEYRASHSTPIEWYPDYEVEAYRRRHHNSSLNFFNWFSDHNFAGSNKIAEILCKDLWRNPLQYYKRMKPPEEGTETSGDSQLLS",–,–,–,5%,0%,–,0%,TSA Expression Rate (ER) (HCC): 35%; Expression Rate (ER) % [7]: 0%; Expression Rate (ER) % [8]: 12%; Expression Rate (ER) % (TSA expression rate in LYMPHOMAS): 0%
"CEP55 (protein, UniProt Q53EZ4 1-464, looked up) Centrosomal protein of 55 kDa: MSSRSTKDLIKSKWGSKPSNSKSETTLEKLKGEIAHLKTSVDEITSGKGKLTDKERHRLLEKIRVLEAEKEKNAYQLTEKDKEIQRLRDQLKARYSTTTLLEQLEETTREGERREQVLKALSEEKDVLKQQLSAATSRIAELESKTNTLRLSQTVAPNCFNSSINNIHEMEIQLKDALEKNQQWLVYDQQREVYVKGLLAKIFELEKKTETAAHSLPQQTKKPESEGYLQEEKQKCYNDLLASAKKDLEVERQTITQLSFELSEFRRKYEETQKEVHNLNQLLYSQRRADVQHLEDDRHKTEKIQKLREENDIARGKLEEEKKRSEELLSQVQFLYTSLLKQQEEQTRVALLEQQMQACTLDFENEKLDRQHVQHQLHVILKELRKARNQITQLESLKQLHEFAITEPLVTFQGETENREKVAASPKSPTAALNESLVECPKCNIQYPATEHRDLLVHVEYCSK",94%,–,–,–,–,–,–,–
"MAGE-A12 (protein, UniProt P43365 1-314, looked up) Melanoma-associated antigen 12: MPLEQRSQHCKPEEGLEAQGEALGLVGAQAPATEEQETASSSSTLVEVTLREVPAAESPSPPHSPQGASTLPTTINYTLWSQSDEGSSNEEQEGPSTFPDLETSFQVALSRKMAELVHFLLLKYRAREPFTKAEMLGSVIRNFQDFFPVIFSKASEYLQLVFGIEVVEVVRIGHLYILVTCLGLSYDGLLGDNQIVPKTGLLIIVLAIIAKEGDCAPEEKIWEELSVLEASDGREDSVFAHPRKLLTQDLVQENYLEYRQVPGSDPACYEFLWGPRALVETSYVKVLHHLLKISGGPHISYPPLHEWAFREGEE",31%,12%,6%,4%,–,49%,–,TSA Expression Rate (ER) (HCC): 36%; Expression Rate (ER) % [7]: 29%; Expression Rate (ER) % (TSA expression rate in Esophageal): 26%; Expression Rate (ER) % [6]: 34%; Expression Rate (ER) % [8]: 21%; Expression Rate (ER) % (TSA expression rate in PEDIATRIC): 41%; Expression Rate (ER) % [4]: 5%
